From the nanobody polyreactivity screen of Harvey et al. (2022)

Assay: yeast display, Sf9 membrane polyspecificity reagent, FACS + sequencing; frameworks hold sequencing errors
Procedure, shortened: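 In a synthetic yeast display library (Saccharomyces cerevisiae BJ5465), nanobody expression was induced with galactose for 36–48 hours. FACS gates were set low and high (top ~1%) using anti-HA fluorescence for expression and streptavidin fluorescence for binding of the Sf9 membrane reagent. Each polyreactivity label is drawn from the gate of origin.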

With “QDQLVESCGGLVQAGGSLRLICAAYGRIISINAMGWYRQAPVKERELVATISWRGGSTYYADSVKGRFTISRDNAKNTVYLQMNSLKPEDTAVYYCKKVFSERWARYFRYDYWVQGTQVTVSS” as the sequence, how does the “polyreactivity (PSR sort gate)” value read?
The value was “high polyreactivity”.

Which “polyreactivity (PSR sort gate)” value does the source give for “QVQLVESGGGLVQAGGSLRLSCAASGSIFNYNAMGWYRQAPGKERELVAGITTSGGSTYYADSVKGRFTISRDNAKNTVYLQMNSLKPEDTAVYYCAAYDYISSTYFLDDYWGQGTQVTVSS” here?
Its value is “low polyreactivity”.

For “QVQLVESGGGLVQAGGSLRLSCAASGRTFRRYTMGWYRQAPGKERELVATISSGGSTYADSVKGRFTISRDNAKNTVYLQMNSLKPEDTAVYYCAATAIYPSAWRMDYWGQGTQVTVSS”, which “polyreactivity (PSR sort gate)” value is on record?
Its value is “high polyreactivity”.

Which “polyreactivity (PSR sort gate)” value does the source give for “QVQLQESAGGLVQAGGSLRLRCSASGYISCDASMGWNRQAPGKERELAASITKGSSTNYADSVKGRFTIRDNAKNTVYLQMNSLKPEDTAVCYCAVTYPYWGDYTYWGQGTQVTVSR” here?
Its value is “low polyreactivity”.

Which “polyreactivity (PSR sort gate)” value does the source give for “QVQLVESGGGLVQAGGSLRLSCAAYGSIFTRYAMGWYIQAPGKERELVAAISKRGGRTYYADSVKGRFTISRDNAKNTVYLQMNSLKPEDTAVYYCNAGSYDYYDGSWSYDYWGQGTQVTVSS” here?
The value was “high polyreactivity”.

For “QVQLVESGGGLVQAGGSLRLSCAASGSIFTVNAMGWYIQAPGIERELVAAIDGSSGSTNYADSVKGRFTISRDIAKNTVYLQMNSLKPEDTAVYYCAADWSYEYGYWGQGTQVTVSS”, which “polyreactivity (PSR sort gate)” value is on record?
The value was “low polyreactivity”.

With “QVQLVESGGGLVQAGGSLRLSCDASGITFGYYAMGWYRQAPGKERELVAAISNSGRTYYADSVKGRFTISRDNAKNSVYLQMNSLKPEDTAVYYCAADDAYYDFYFWGQGTQVTVSS” as the sequence, how does the “polyreactivity (PSR sort gate)” value read?
Its value is “low polyreactivity”.

Which “polyreactivity (PSR sort gate)” value does the source give for “QVQLVESGGGLVQAGGSLRLSCAASGSTFSLYAMGWYRQAPGKERELVAAITRSGGGTHYADSVKGRFTISRDNAKNTVYLQMNSLKPEDTAVYYCAKRQSGYRYDYWGQGTEVTVSS” here?
The value was “low polyreactivity”.

Which “polyreactivity (PSR sort gate)” value does the source give for “QVQLVESVGGLVQAGGSLRLSCAASGSTSSLYAMGWYRQAPGKERELVASITSRGGSTYYAVSVKGRFTISRDNAKNTVYLLMNSLKPEDTAVYYCAADASRPDRWYLWKYYYWGQGTQVTVSS” here?
Its value is “high polyreactivity”.

With “QVQLVESGGGLVQAGGSLRLSCAASGSTFILYAMGWYRQAPGKERELVAAITTSGGSTYYADSVKGRFTISRDNAKNTVYLQMKSLKPEDTAVYYCNGGLSVTHGTSIPFRNYEYWGQGTQVTVSS” as the sequence, how does the “polyreactivity (PSR sort gate)” value read?
The value was “low polyreactivity”.

For “QVQRLESGGGLVQAGGSLRLSCAASGGTIDWNAMGWYRQAPGKETEFVAAITSSGGSTYYADSVKGRFTISRDNAKNSVYLQMTSLKPEDTAVYECAADFWYYQYPYGGGGYWGQGTQVTVSS”, which “polyreactivity (PSR sort gate)” value is on record?
Its value is “low polyreactivity”.

For “QDQLVESAGGLVQAGGSLRLSCAASGNTFSTNPLGSYRQAAGKERELVATISRNGGSTSYAVSVKGRFTISRDNAKNSDYLKMYSLKAEDTAVYYCAARSVRPGPFSDDYWGQGTQVTVSS”, which “polyreactivity (PSR sort gate)” value is on record?
The value was “low polyreactivity”.

For “QVQLEESGGGLVQAGGSLRLSCAASGYIFSQYAMGWYRPAPGKERELVASISGSGSSTYYADSVKGRFTISRDNAKNTVYLQMNSLKPADTAVFYCAAEWTWGWYITFDYWGQGTQVTVSS”, which “polyreactivity (PSR sort gate)” value is on record?
Its value is “high polyreactivity”.

Which “polyreactivity (PSR sort gate)” value does the source give for “QVQLVESGGGLVQAGGSLRLSCAASGFIFVRYAMGWYRQAPGKERELVASITRSGGSTYYADSVKGRFTISRDNAKNTVYLQMNSLKPEDTAVYYCAASYYRSRGSTYGYWGQGTQVTVSS” here?
Its value is “high polyreactivity”.

For “QVQLVESGGGLVQAGGSLRLSCAASGRIFQANAKGWYRQAPGKERELVAAINSGDSTYYADSVKGRFTISRDNAKNTVYLQMNSLKPEDTAVYYCAADAVFQYYTYYYWGQGTQVTVSS”, which “polyreactivity (PSR sort gate)” value is on record?
Its value is “low polyreactivity”.

Which “polyreactivity (PSR sort gate)” value does the source give for “QVQLVESGGGLVQAGGSLRLSCAASGLTFYTYAMGWYRQAPGKERELVAAISSGGSTNYADSVKGRFTISRDNAKNTVYLQMNSLKPEDTAVYYCASGGQYYIIRYDYWGQGTQVTVSS” here?
The value was “low polyreactivity”.

For “QVQLVESGGGLVQAGGSLRLSCAASGRTFYPYAMGWYRQAPGTERELVAAISRSGGGTYYADSVKGRFTISRDNAKNTVYLQMNSLKPEDTAVYYCAAARYLSIYNYWGQGTQVTVSS”, which “polyreactivity (PSR sort gate)” value is on record?
Its value is “low polyreactivity”.

With “PVQLVESRGRLVQAGGSLRLSCAASGSIFGYNAMGWYRQAPGKERELVAAISYSGASTYYSDSVKGRFTISRDNAKNTVYLQLNSLKPEDTAVYYCAAGWKRFSGRNHYYWGLGTQVTVSS” as the sequence, how does the “polyreactivity (PSR sort gate)” value read?
Its value is “high polyreactivity”.

For “QVQHVESGRGLVQAGGSLRLSCAASGSIFSSYARGWSREAPGKERELVAAISQSGGDTYYADSVKGRFTISRDNAKNTVYLQMKSLKPEDTAVYYCAASVWYYPMDYWGQGTQVTVSS”, which “polyreactivity (PSR sort gate)” value is on record?
The value was “low polyreactivity”.

With “QVQLVESGGGLVQAGGSLRLSCAASGSIFVENAMGWYRQAPGKERELVAAISSDASTNYADSVKGRFTISRDNAKNTVYLQMNSLKPEDTAVYSCAAGYNPHGQYDYWGQGTQVTVSS” as the sequence, how does the “polyreactivity (PSR sort gate)” value read?
The value was “low polyreactivity”.

With “QVQLVESGAGLVQAGGSLRLSCAASGIISYRNGMGWYRQAPGKERELVASISKRADSTYYADSVKGGFTLSRDNAKNTVYLQMNSLKPEDTAVYYCAANFRDWHRYYPAGYLRRGYWGQGTQVTVSS” as the sequence, how does the “polyreactivity (PSR sort gate)” value read?
The value was “high polyreactivity”.

With “QVQLVESGGGLVQAGGSLRLSCAASGGIFSSYAMGWYRQAPGKERELVADISWNGDSTYYADSVKGRFTISRDNAKNTVYLQMNSLKPEDTAVYYCNAQWYFTPGTPVDYWGQGTQLTVSS” as the sequence, how does the “polyreactivity (PSR sort gate)” value read?
Its value is “low polyreactivity”.

For “QVQLVESGGGLVQAGGSLRLSCAASGSTFTLYAMGWYRQAPGTERELVAAISWSGDTTYYADSVKGRFTISRDNAKNTVYLQMNILKPEDTAVYYCAADWYNSYYYEHESWGQGTQVTVSS”, which “polyreactivity (PSR sort gate)” value is on record?
Its value is “high polyreactivity”.

Which “polyreactivity (PSR sort gate)” value does the source give for “QDQLVESGGGLVQAGGSLRLSCAASGSTFPKYAMGWYRQAPGKERELVASISVTTGSTYYADSVKGRFTISRDNAKNTVYLQMNSLKPEDTAVYYCPKRTYSRKFRGAYNYWGQGTQVTVSS” here?
Its value is “high polyreactivity”.

For “QVQLVESGGGLVQAGGSLRLSCAASGITFRNYAMGWYRPAPGKERELVADITTGGSTYADSVKGRFTISRDNAKNTVYLQMISLKPEDTAVYYCAARYFSYYILRRIYPVREDYWGQGTQVTVSS”, which “polyreactivity (PSR sort gate)” value is on record?
The value was “low polyreactivity”.

For “QVQLVESGGGLVQAGGSLRLSCAASGSIFSSNAMGWYRQAPGKERELGAAISRSACSTYYADSVKGRFTISRDNAKNTVYLQMNSLKPEDTAVYYCNAVTRLGTYDYWGQGTQVTVSS”, which “polyreactivity (PSR sort gate)” value is on record?
The value was “high polyreactivity”.

For “QVQLVESGGGLVQAGGSLRLSCAASGSIFRYYAMGWYRQAPGKERELVAAITSGGSTSYADSVKGRFTISRDNAKNTVYLQMNSLKPEDTAVYYCAKRSRHNKYYYWGQGTQVTVSS”, which “polyreactivity (PSR sort gate)” value is on record?
Its value is “high polyreactivity”.

Which “polyreactivity (PSR sort gate)” value does the source give for “QVQLVESGGGLVQAGASLRLSCAASGRTFYQNGMGWYRQAPGKERELVAVISSGGNTDYADSVKGRFTMSRDNAKNTVYLQMNSLKPEDTAVYYCNADVRPAYTYDYWGQGTQVTVSS” here?
Its value is “low polyreactivity”.

Which “polyreactivity (PSR sort gate)” value does the source give for “QVQLVESGGGLVQAGGSLRLSCAASGFTFDGYAMGWYRQAPGKERELVAAISDSGDSTYYADSVKGRFTISRDNAKNTVYLQMNSLKPEDTAVYYCAAGLGYYWSDYFAYDYWGQGTQVTVSS” here?
The value was “low polyreactivity”.

With “QVQLVESGGGLVQAGGSLRLSCAASGSTFRRYAMGGYRQAPGKERELVAAISRSGGTTYYADSVKGRFTISRDNAKNTVYLQMNSLKPEDTAVYYCNARYPVVRYDYWGQGTQVTVSS” as the sequence, how does the “polyreactivity (PSR sort gate)” value read?
The value was “high polyreactivity”.

With “QVQLVESGGGLVQAGGSLRLSCAASGRIFGGYTMGWYRQAPGKERELVAAITGSGGRTYYADSVKGRFTISRDKAKNTVYLQMNSLKPDETAVYYCNTVYRYRYYWGQGTQVTVSS” as the sequence, how does the “polyreactivity (PSR sort gate)” value read?
The value was “high polyreactivity”.

Which “polyreactivity (PSR sort gate)” value does the source give for “QVQLEESGGGLVQAGGSLRLSCAASGSIFVYNAMGWYRQAPGKERELVAAISQRGGSTYYADSVKGRFTISRDNDKNTVYLQMNSLKPEDTAVYYCAAGPGDSGDDYWGQGTQVTVAS” here?
Its value is “low polyreactivity”.

For “QVQLVDSGGGLVQAGGSLRLSCAASGRTFPFYAKGLSRQATGKERELVAVITWRGSNTFADSVKGRFTISRDNAKNTVFLQMNSLKPEDTAVYYCAADAWRSYGYRAYDYWGQGTQVTVSS”, which “polyreactivity (PSR sort gate)” value is on record?
Its value is “high polyreactivity”.

Which “polyreactivity (PSR sort gate)” value does the source give for “QVQLVESGGGLVQAGGSLRLSCAASGSTFYYYAMGWYRQAPGKERELVAVITRGGGTYYADSVKGRFTISRDNAKNTVYLQMNSLKPEDTAVYYCNARQRSSTRKGYNYWGQGTQVTVSS” here?
The value was “high polyreactivity”.

For “QVQLVESGGGLVQAGGSLRLSCAASGRTSVINAMGWYRQATGKERELVAAITKRGGSTYYADSVKGRFTISRDNAKNTVYLQMNSLKPEDTAVYYCAKYAISIQYDSWGQGTQVTVSS”, which “polyreactivity (PSR sort gate)” value is on record?
Its value is “high polyreactivity”.

For “QVQLVESGGGVVQAGGSLRLSCAASGIIFLYNVMGWYRQAPAKERELVAAISWRGGTYYAHSVKGRFTISRDNAKNSVYLQMNSLKPEDTAVYYCNTYPAASLYGFSYPYRYDSWGQGTQVTVSS”, which “polyreactivity (PSR sort gate)” value is on record?
The value was “high polyreactivity”.

Which “polyreactivity (PSR sort gate)” value does the source give for “QVQLVESGGGLVQAGGSLRLSCAASGRIFTYNTMGWYRQATGKEREFVASITYSGSSTYYADSVKGRFTISRDNAKNTVYLQMNSLKPEDTAVYYCATRYGYSDGDYWGQRTQVTVSS” here?
Its value is “low polyreactivity”.

With “QVQLLESGGGLVQAGGSLRLSCASSGRTFRSYGMGWYRQAPGKERELVAVISWRDGSTFYADSVKGRFTISRDNAKNTVYLQMNSLKPEDTAVYYCNARGDVIVTPPKFSFKYEYWGQGTQVTVSS” as the sequence, how does the “polyreactivity (PSR sort gate)” value read?
Its value is “low polyreactivity”.

Which “polyreactivity (PSR sort gate)” value does the source give for “QVQLVESGGGLVQAGGSLRLSCAASGRIFVVNAMGWYRQAPGTERELVAAITRRGGSTYADSVKGRFTISRDNAKNTVYLQMNSLKPEDTAVYYCNAESYYGIFRYKYDYWGQGTQVTVSS” here?
The value was “high polyreactivity”.

With “QVQLVESGGGLVQAGGSLRVSCAASGITSPYNAMGWYRQAPGKERELVAGITSGDSTDYADSVKGRFTISRDNAKNTVYLQMNSLKPEDTAVYYCAADSIRYCDYDYWGHGTQVTVSS” as the sequence, how does the “polyreactivity (PSR sort gate)” value read?
The value was “low polyreactivity”.

For “QLQLVESGGGLVQAGGSLRLSCAASGRIYLYAMGWSRQAPGKERELVAAITTRAGRTYYADSVKGRFTISRDNAKNTVYFQMNSLKPEDTAVYYCAADGTRYPAYGYWGQGTQVTVSS”, which “polyreactivity (PSR sort gate)” value is on record?
Its value is “low polyreactivity”.
